Assay results reported in publication PMC5825156.

Biological target: SIMx4 probe (fragment of Ring Finger Protein 4 comprising four SIMs) (Rattus norvegicus) (UniProt O88846)
Assay: pull-down; lysate of E. coli expressing HA-TbSUMO chains or monomer incubated with His-tagged SIMx4 or mutSIMx4 probe, 50 mM Tris HCl pH 7.6, 150 mM NaCl, 1% NP40, 0.5% deoxycholate, 1.5 h at 4°C; captured on Ni^+2-resin, washed with 250 mM NaCl, eluted with imidazole; Western blot anti-HA, three replicates

Sequence of UniProt O88846 (O88846 32-132): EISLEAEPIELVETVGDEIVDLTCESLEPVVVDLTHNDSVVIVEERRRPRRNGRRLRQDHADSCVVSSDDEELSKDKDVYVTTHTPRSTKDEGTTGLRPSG

In the case of “HA-TbSUMO chains (poly-SUMO chains of Trypanosoma brucei SUMO made by in bacteria SUMOylation)”, the fold pulled down against the mutSIMx4 probe or beads alone is reported as greater than 3 fold.
